Numbered stars: 1 amine (or outer) side, 2 acyl side, 3 side chain; on linkers, the order of the positions; unused ones are H or OH. Square brackets hold non-standard residues; d marks the D form. * marks the point of attachment. X1 = N‑((R)-1-(2-naphthyl)ethyl)amide, C[C@@H](N*)c1ccc2ccccc2c1; 3,5‑dimethyl‑Tyr = Cc1cc(C[C@H](N[*:1])C(=O)[*:2])cc(C)c1O[*:3]; 6‑guanidinohexyl = N=C(N)NCCCCCC*
B1: Example 27 (N-α-6-guanidinohexyl-3,5-dimethyl-Tyr-3,5-dimethyl-Tyr-N-[(R)-1-(2-naphthyl)ethyl]-argininamide) (peptide)
chain: {6‑guanidinohexyl}-[3,5‑dimethyl‑Tyr]-[3,5‑dimethyl‑Tyr]-Arg-X1
SMILES: Cc1cc(C[C@H](NCCCCCCNC(=N)N)C(=O)N[C@@H](Cc2cc(C)c(O)c(C)c2)C(=O)N[C@@H](CCCNC(=N)N)C(=O)N[C@H](C)c2ccc3ccccc3c2)cc(C)c1O
B2: Example 25 (N-α-6-guanidinohexyl-3,5-dimethyl-Tyr-Tyr-N-[(R)-1-(2-naphthyl)ethyl]-argininamide) (peptide)
chain: {6‑guanidinohexyl}-[3,5‑dimethyl‑Tyr]-Tyr-Arg-X1
SMILES: Cc1cc(C[C@H](NCCCCCCNC(=N)N)C(=O)N[C@@H](Cc2ccc(O)cc2)C(=O)N[C@@H](CCCNC(=N)N)C(=O)N[C@H](C)c2ccc3ccccc3c2)cc(C)c1O
B3: Example 1 (N-α-6-guanidinohexyl-Tyr-Tyr-Arg-Trp-NH2) (peptide)
chain: {6‑guanidinohexyl}-YYRW-NH2
SMILES: N=C(N)NCCCCCCN[C@@H](Cc1ccc(O)cc1)C(=O)N[C@@H](Cc1ccc(O)cc1)C(=O)N[C@@H](CCCNC(=N)N)C(=O)N[C@@H](Cc1c[nH]c2ccccc12)C(N)=O

Assays:
[1] = target: mu opioid receptor (human, UniProt P35372); experiment: competition, [3H]diprenorphine, 25C, pH 7.8
Sequence of mu opioid receptor (P35372 whole entry): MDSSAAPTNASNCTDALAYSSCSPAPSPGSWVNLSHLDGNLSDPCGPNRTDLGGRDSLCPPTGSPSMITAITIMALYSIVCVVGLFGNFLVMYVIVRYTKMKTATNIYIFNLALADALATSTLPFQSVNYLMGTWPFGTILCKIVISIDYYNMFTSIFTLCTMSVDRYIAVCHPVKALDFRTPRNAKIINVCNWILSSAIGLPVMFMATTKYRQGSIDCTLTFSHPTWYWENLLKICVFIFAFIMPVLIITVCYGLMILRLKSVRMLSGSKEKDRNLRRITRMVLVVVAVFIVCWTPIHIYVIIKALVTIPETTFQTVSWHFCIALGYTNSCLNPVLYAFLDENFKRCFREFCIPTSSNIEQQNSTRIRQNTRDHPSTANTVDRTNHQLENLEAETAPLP

[2] = target: nociceptin receptor (human, UniProt P41146); experiment: competition, [3H]nociceptin, 25C, pH 7.8
Sequence of nociceptin receptor (P41146 whole entry): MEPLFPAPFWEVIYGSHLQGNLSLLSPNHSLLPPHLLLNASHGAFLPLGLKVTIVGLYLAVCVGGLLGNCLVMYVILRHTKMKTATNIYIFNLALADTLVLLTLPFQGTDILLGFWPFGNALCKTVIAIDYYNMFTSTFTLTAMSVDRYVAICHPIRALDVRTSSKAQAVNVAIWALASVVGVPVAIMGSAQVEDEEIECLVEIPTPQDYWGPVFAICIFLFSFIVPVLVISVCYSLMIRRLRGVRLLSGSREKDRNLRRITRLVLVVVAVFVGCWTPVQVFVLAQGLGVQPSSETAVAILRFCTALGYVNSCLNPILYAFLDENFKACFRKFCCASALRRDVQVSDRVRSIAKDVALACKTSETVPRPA

| Binder | Ki [1] [nM] | Ki [2] [nM] |
| --- | --- | --- |
| B1 | 10 | 0.6 |
| B2 | 14 | 0.9 |
| {6‑guanidinopentyl}-Tyr-Tyr-Arg-X1 [Example 23 (N-α-6-guanidinopentyl-Tyr-Tyr-N-[(R)-1-(2-naphthyl)ethyl]-argininamide)] | 59 | 1.8 |
| B3 | 40 | 0.43 |

Reference: US7163921 (dated 2007)
